Consider 9 substances from publication PMC3773880.

pKi: −log10 of the molar value.

The target in assay [1] is low molecular weight gingipain R (RgpB) (Porphyromonas gingivalis) (UniProt P95493). Briefly: enzyme inhibition kinetics.
Assay [2] addresses high molecular weight gingipain R (HRgpA) (Porphyromonas gingivalis). The experiment in a line: enzyme inhibition kinetics.
For assay [3] the target is unchanged.

In assay [1], PD_(RgpB) R102Q (domain or fragment) gave a pKi of under 5.30. The same measure, in the same setting: under PD_(RgpB) R102E (domain or fragment) stands under 5.30. In assay [1], PD_(RgpB) R102K (domain or fragment) showed a pKi of 7.34. On the same count and under the same terms, the figure for PD_(RgpB) R102A (domain or fragment) is under 5.30; for PD_(RgpB) R159K (domain or fragment) it is 8.11. For PD_(RgpB) R66A (domain or fragment), the pKi in assay [1] was 8.31. This pKi lies 0.20 log units higher than the previous one. Turning to “PD_(RgpA), recombinant N-terminal prodomain of RgpA (from UniProt P28784 24-227) (domain or fragment)”, the pKi in assay [2] was 9.07.

In assay [3], “PD_(RgpB), recombinant N-terminal prodomain of RgpB (from UniProt P95493 25-229) (domain or fragment)” came in with an IC50 of inhibition of amidolytic activity (L-BAPNA), 10 nM enzyme of 12.6 nM; an IC50 of inhibition of aminopeptidase activity (H-Arg-AMC), 10 nM enzyme of 4.9 nM; an IC50 of inhibition of proteolytic activity (Azocoll), 10 nM enzyme of 5.8 nM. In assay [2], this substance showed a pKi of 8.28. With PD_(RgpB) R66K (domain or fragment), in assay [1], the pKi is 7.51.

A word on the pKi: it is the Ki on a negative log10 scale, so that one unit is a factor of ten.
